The record followed here is publication PMC4007306 (Archives of biochemistry and biophysics, 2013).

For series [1], the target named is S-adenosylmethionine synthetase (AdoMet synthetase, MAT) from Neisseria meningitidis WUE2594 (Neisseria meningitidis WUE2594). The experiment in a line: native gel or EMSA.
For series [2] the target is unchanged. Kind of series: dynamic light scattering.
For series [3], the target named is AdoMet synthetase (MAT, MetK). The experiment in a line: coupled enzyme assay, Dixon plot. In kind it is biochemical, Campylobacter jejuni.
For series [4], the target named is T1, AdoMet synthetase (MAT, MetK) (Pseudomonas aeruginosa, UniProt Q9I5Z0).
T1 sequence (Q9I5Z0 1-396): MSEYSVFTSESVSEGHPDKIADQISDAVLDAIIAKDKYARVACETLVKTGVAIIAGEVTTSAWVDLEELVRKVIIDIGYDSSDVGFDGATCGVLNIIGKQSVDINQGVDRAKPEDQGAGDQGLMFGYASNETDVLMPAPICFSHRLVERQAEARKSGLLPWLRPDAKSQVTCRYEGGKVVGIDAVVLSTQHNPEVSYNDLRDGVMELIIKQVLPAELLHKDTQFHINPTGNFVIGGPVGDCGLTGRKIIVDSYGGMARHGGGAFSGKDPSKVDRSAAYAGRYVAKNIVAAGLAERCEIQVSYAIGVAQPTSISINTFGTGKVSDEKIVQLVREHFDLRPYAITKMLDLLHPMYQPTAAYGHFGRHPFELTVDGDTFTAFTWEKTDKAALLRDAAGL
Kind of series: coupled enzyme assay, Dixon plot. The series is classed as biochemical.

Substrate in series [5]: CCOC(=O)[C@@H](N)CCSC
Kind of series: coupled pyrophosphate enzyme assay, alternative substrate kinetics. In kind it is biochemical, Escherichia coli. As to conditions: MgATP L-methionine binding site.

Substrate in series [6]: COC(=O)[C@@H](N)CCSC
Described as above. In kind it is biochemical, Escherichia coli. The conditions noted are these: MgATP L-methionine binding site.

The series “dynamic light scattering” deals with the molecule itself. The experiment in a line: dynamic light scattering.
Substrate in series [7]: CSCC[C@H](N)C(=O)O
Kind of series: coupled pyrophosphate enzyme assay, steady-state kinetics. The series is classed as biochemical, Pseudomonas aeruginosa. As to conditions: MgATP L-methionine binding site of the active site.

A word on the stoichiometry N: it is a count of units in the complex or per binding partner. By Ki is commonly meant a measure of affinity in units of concentration, obtained from inhibition or displacement. By Km is commonly meant the substrate concentration at which the rate is half of its maximum.

Turning to “S-adenosylmethionine synthetase (AdoMet synthetase, MAT) from Neisseria meningitidis WUE2594 (enzyme)”, the stoichiometry N in series [1] and in series [2] was 4 each time.

As for `CSCC[C@H](N)CC(=O)O` [β-methionine, (R)-3-amino-5-(methylthio)pentanoic acid], in series [3], the Ki was around 7 mM.

`NC(=O)SC[C@H](N)C(=O)O` [S-carbamyl-L-cysteine]: the Ki in series [4] is around 4 mM.

B1: AdoMet synthetase (MAT, MetK) (Escherichia coli K-12) (protein)
chain: AKHLFTSESVSEGHPDKIADQISDAVLDAILEQDPKARVACETYVKTGMVLVGGEITTSAWVDIEEITRNTVREIGYVHSDMGFDANSCAVLSAIGKQSPDINQGVDRADPLEQGAGDQGLMFGYATNETDVLMPAPITYAHRLVQRQAEVRKNGTLPWLRPDAKSQVTFQYDDGKIVGIDAVVLSTQHSEEIDQKSLQEAVMEEIIKPILPAEWLTSATKFFINPTGRFVIGGPMGDCGLTGRKIIVDTYGGMARHGGGAFSGKDPSKVDRSAAYAARYVAKNIVAAGLADRCEIQVSYAIGVAEPTSIMVETFGTEKVPSEQLTLLVREFFDLRPYGLIQMLDLLHPIYKETAAYGHFGREHFPWEKTDKAQLLRDAAGLK
With B1, the Km in series [5] stood at 120 ± 10 µM; in series [6], 170 ± 50 µM.

B2: S-adenosylmethionine synthetase (AdoMet synthetase, MAT) from Campylobacter jejuni 81-176 (enzyme, UniProt Q0P9F8 1-398, looked up)
chain: MYLFTSEVVSAGHPDKCADIIADTIVDILLKNDKNSRVASEVFVAGNKVVIGGEVKSNHKLSKADYDNLVKDVLKNIGYDGAGHFSKEQCLHPDEVDVMVFLNEQSPDINQGVDQEDGETGAGDQGIMFGFASCEAEEYMPAAISYARMLCDRVYAYAKANPHELGVDIKTQVTIDYGTKANFENCKPQSIHTIVVSAPCVESMKIEDLRSLVMKLILDSNLPKELFDPNKTRILINPTGKYVNHSSLHDSGLTGRKLIVDSFGGYSPIGGGAQSSKDYTKVDRSGLYAGRWLAKNIVAAGLAKKCIVQLSYAIGVAKPTSVSVDCMGTNTSVNDDVLSDFVMQNFSLTPNWIRDKFHLDKPSKETFLYADVAARGQVGQKDYPWEKLDALEQFKKLL
Turning to B2, in the series “dynamic light scattering”, the “stoichiometry N” value was 2.

B3: S-adenosylmethionine synthetase (AdoMet synthetase, MAT) from Escherichia coli K12 (enzyme, UniProt B1XFA4 1-384, looked up)
chain: MAKHLFTSESVSEGHPDKIADQISDAVLDAILEQDPKARVACETYVKTGMVLVGGEITTSAWVDIEEITRNTVREIGYVHSDMGFDANSCAVLSAIGKQSPDINQGVDRADPLEQGAGDQGLMFGYATNETDVLMPAPITYAHRLVQRQAEVRKNGTLPWLRPDAKSQVTFQYDDGKIVGIDAVVLSTQHSEEIDQKSLQEAVMEEIIKPILPAEWLTSATKFFINPTGRFVIGGPMGDCGLTGRKIIVDTYGGMARHGGGAFSGKDPSKVDRSAAYAARYVAKNIVAAGLADRCEIQVSYAIGVAEPTSIMVETFGTEKVPSEQLTLLVREFFDLRPYGLIQMLDLLHPIYKETAAYGHFGREHFPWEKTDKAQLLRDAAGLK
Take B3: in “dynamic light scattering”, the “stoichiometry N” value was 4.

B4: S-adenosylmethionine synthetase (AdoMet synthetase, MAT) from Pseudomonas aeruginosa PA01 (enzyme, UniProt B7V4D3 1-396, looked up)
chain: T1 sequence (Q9I5Z0 1-396)
In the case of B4, the Michaelis constant (Km) in series [7] is 40 ± 5 µM. In addition, in “dynamic light scattering”, the “stoichiometry N” value was 4.
